Three proteins from patent US7176008 can be followed below.

The data set deals with T1, Biotinyl-EACA-EACA-Gly-Leu-Met-Val-Gly-Gly-Val-Val-Arg-OH.
T1 chain: GLMVGGVVR

B1: activated thrombin-activatable fibrinolysis inhibitor (human TAFIa) (protein)
chain: ASASYYEQYHSLNEIYSWIEFITERHPDMLTKIHIGSSFEKYPLYVLKVSGKEQAAKNAIWIDCGIHAREWISPAFCLWFIGHITQFYGIIGQYTNLLRLVDFYVMPVVNVDGYDYSWKKNRMWRKNRSFYANNHCIGTDLNRNFASKHWCEEGASSSSCSETYCGLYPESEPEVKAVASFLRRNINQIKAYISMHSYSQHIVFPYSYTRSKSKDHEELSLVASEAVRAIEKISKNTRYTHGHGSETLYLAPGGGDDWIYDLGIKYSFTIELRDTGTYGFLLPERYIKPTCREAFAAVSKIAWHVIRNV
Turning to B1, the Km result was “Values of Km for TAFIa and CPB were 8 and 12 µM, respectively”.

B2: human soluble carboxypeptidase M (protein)
chain: LDFNYHRQEGMEAFLKTVAQNYSSVTHLHSIGKSVKGRNLWVLVVGRFPKEHRIGIPEFKYVANMHGDETVGRELLLHLIDYLVTSDGKDPEITNLINSTRIHIMPSMNPDGFEAVKKPDCYYSIGRENYNQYDLNRNFPDAFEYNNVSRQPETVAVMKWLKTETFVLSANLHGGALVASYPFDNGVQATGALYSRSLTPDDDVFQYLAHTYASRNPNMKKGDECKNKMNFPNGVTNGYSWYPLQGGMQDYNYIWAQCFEITLELSCCKYPREEKLPSFWNNNKASLIEYIKQVHLGVKGQVFDQNGNPLPNVIVEVQDRKHICPYRTNKYGEYYLLLLPGSYIINVTVPGHDPHITKVIIPEKSQNFSALKKDILLPFQGQLDSIPVSNPSCPMIPLYRNLPDHS
B2: the “Km (37° C.)” value was “the value was much higher (>50 µM) at 37 °C” and the “Km (room temperature)” value is on record as “Km for CPM was 38 µM at room temperature”.

B3: human carboxypeptidase B (protein)
chain: ATGHSYEKYNKWETIEAWTQQVATENPALISRSVIGTTFEGRAIYLLKVGKAGQNKPAIFMDCGFHAREWISPAFCQWFVREAVRTYGREIQVTELLDKLDFYVLPVLNIDGYIYTWTKSRFWRKTRSTHTGSSCIGTDPNRNFDAGWCEIGASRNPCDETYCGPAAESEKETKALADFIRNKLSSIKAYLTIHSYSQMMIYPYSYAYKLGENNAELNALAKATVKELASLHGTKYTYGPGATTIYPAAGGSDDWAYDQGIRYSFTFELRDTGRYGFLLPESQIRATCEETFLAIKYVASYVLEHLY
With B3, the Km entry is “Values of Km for TAFIa and CPB were 8 and 12 µM, respectively”.
